In publication PMC11079477 (iScience, 2024):
Where a chain is given by its changes, count along the chain named. Names may count otherwise. Like-named read-outs stand apart in the source and are kept apart here.

How the values were obtained:
[1] = target: the molecule itself; experiment: reducing SDS-PAGE and immunoblot
[2] = target: the molecule itself; experiment: non-reducing SDS-PAGE and Western blot
non-reducing SDS-PAGE = target: the molecule itself; experiment: non-reducing SDS-PAGE
[3] = target: the molecule itself; experiment: reducing SDS-PAGE and immunoblot of a membrane preparation
[4] = target: the molecule itself
4M urea SDS-PAGE = target: the molecule itself; experiment: 4M urea SDS-PAGE

B1: PfP2-HA of P. falciparum 3D7 P2-HA glmS transgenic parasites (natural protein, Plasmodium falciparum 3D7, UniProt O00806 1-112, looked up)
chain: MAMKYVAAYLMCVLGGNENPSTKEVKNVLGAVNADVEDEVLNNFIDSLKGKSCHELITDGLKKLQNIGGGVAAAPAGAAAVETAEAKKEDKKEEKKEEEEEEEDDLGFSLFG
stoichiometry N [1]: 4

B2: PfP2C12A (Clone 1, C12A) (natural protein, Plasmodium falciparum 3D7, UniProt O00806 1-112, looked up)
chain: B1 chain with C12A
stoichiometry N [2]: 2

B3: 6x His tag recombinant PfP2 (P. falciparum 60S stalk ribosomal protein P2) (natural protein, Plasmodium falciparum 3D7, UniProt O00806 1-112, looked up)
chain: B1 chain
stoichiometry N (non-reducing SDS-PAGE): 4

B4: PfP2 of wild type P. falciparum 3D7 parasites (natural protein, UniProt O00806 1-112, looked up)
chain: B1 chain
modifications: 11th methionine (Met11) oxidized in the parasite membrane preparation (ESI MS/MS)
stoichiometry N [1]: 4 | stoichiometry N [3]: 2

B5: LAFS-induced alkylated rec. PfP2 tetramer (natural protein, Plasmodium falciparum 3D7, UniProt O00806 1-112, looked up)
chain: B1 chain
modifications: cysteines alkylated using iodoacetamide (IAA) after reduction with DTT
stoichiometry N [4]: 4

B6: LAFS-induced denaturation-resistant rec. PfP2 tetramer (natural protein, Plasmodium falciparum 3D7, UniProt O00806 1-112, looked up)
chain: B1 chain
modifications: 11th methionine (Met11) oxidized; Met11 S-O-S Met11 linkages between chains as the paper proposes
stoichiometry N (4M urea SDS-PAGE): 4
